The text below walks through data of US20230295324A1 (published 2023).

For experiment [1], the target named is T1, human PSMA on LNCAP cells (human, UniProt Q04609 1-750).
T1 construct: whole, on cells
Briefly: FACS, LNCAP cells (human PSMA). The method, then:
(§1) This example is intended to investigate the in vitro binding activity of OX40×TAA bispecific antibodies obtained in Example 9 to tumor-associated antigens (TAAs). […] Briefly, those cells were digested, resuspended in a complete medium, and washed with PBS, and the cell density was adjusted to 1×10⁶ cells/ml with PBS. The cells were seeded in a 96-well V-bottom plate (Corning, #3894) at 100 μL/well, and centrifuged, and then the supernatant was discarded. Then, the test antibodies diluted in a 3-fold gradient were added at 100 μL/well. The cells were incubated at 4° C. for 1 h away from light. Thereafter, the cells in each well were rinsed twice with 100 μL of pre-cooled PBS, and centrifuged at 500 g at 4° C. for 5 min, and then the supernatant was discarded. […] The plate was incubated away from light at 4° C. for 30 min. The cells in each well were rinsed twice with 100 μL of pre-cooled PBS, and centrifuged at 500 g at 4° C. for 5 min, and then the supernatant was discarded. Finally, the cells in each well were resuspended in 200 μL of pre-cooled PBS, and the fluorescence signal values were read using NovoCyte flow cytometer (ACEA Biosciences).
Background: Flow cytometry measures light scatter and fluorescence of single cells or particles in a stream.

The target of experiment [2] is T2, human OX40 on cells (CHO-K1/hu OX40) (human, UniProt P43489 29-277).
T2 construct: whole, on cells; Also used here for OX40 on the HEK293/OX40/NF-kb reporter cells and on human T cells in the functional assays; also called CHO-K1/OX40; human OX40 cells
T2 sequence (looked up): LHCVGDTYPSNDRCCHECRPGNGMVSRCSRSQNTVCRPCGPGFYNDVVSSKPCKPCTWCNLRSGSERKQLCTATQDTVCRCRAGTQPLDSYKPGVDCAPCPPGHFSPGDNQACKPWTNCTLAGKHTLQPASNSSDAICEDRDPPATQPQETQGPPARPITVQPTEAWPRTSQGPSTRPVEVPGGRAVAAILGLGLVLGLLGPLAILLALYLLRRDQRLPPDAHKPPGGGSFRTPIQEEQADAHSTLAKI
Briefly: FACS, CHO-K1/hu OX40 cells. The method, then:
This example is intended to investigate the in vitro binding activity of OX40×TAA bispecific antibodies obtained in Example 9 to human OX40. The antibody binding assay at the cellular level was performed using a CHO-K1 cell strain overexpressing human OX40 (CHO-K1/hu OX40). Briefly, CHO-K1/hu OX40 cells were digested, resuspended in an F12K complete medium, and washed with PBS, and the cell density was adjusted to 1×10⁶ cells/ml with PBS. The cells were seeded in a 96-well V-bottom plate (Corning, #3894) at 100 μL/well, followed by the addition of test antibodies diluted in a 3-fold gradient at concentrations that were 2 times the final concentrations at 100 μL/well. The cells were incubated at 4° C. for 1 h away from light. Thereafter, the cells in each well were rinsed twice with 100 μL of pre-cooled PBS, and centrifuged at 500 g at 4° C. for 5 min, and then the supernatant was discarded. […] The plate was incubated away from light at 4° C. for 30 min. The cells in each well were rinsed twice with 100 μL of pre-cooled PBS, and centrifuged at 500 g at 4° C. for 5 min, and then the supernatant was discarded. Finally, the cells in each well were resuspended in 200 μL of pre-cooled PBS, and the fluorescence signal values were read using NovoCyte flow cytometer (ACEA Biosciences).

Experiment [3] concerns the target T3, human PD-L1 on MDA-MB-231 cells (human, UniProt Q9NZQ7 19-290).
T3 construct: whole, on cells
Briefly: FACS, MDA-MB-231 cells (human PD-L1). The method, then:
as §1

Experiment [4] deals with T2, human OX40 on cells (CHO-K1/hu OX40). The experiment in a line: cell-based or functional assay.
Experiment [5] addresses T4, cynomolgus monkey OX40 protein (Novoprotein, #CB17) (cynomolgus monkey).
T4 construct: Bought recombinant protein; also called cyno OX40
The experiment in a line: ELISA, coated cyno OX40 protein. (In general: ELISA stands for enzyme-linked immunosorbent assay.)

The target in experiment [6] is T5, human OX40 protein (Acro biosystem, #OX0-H5224) (human, UniProt P43489 29-216).
T5 construct: Bought recombinant protein
T5 sequence (looked up): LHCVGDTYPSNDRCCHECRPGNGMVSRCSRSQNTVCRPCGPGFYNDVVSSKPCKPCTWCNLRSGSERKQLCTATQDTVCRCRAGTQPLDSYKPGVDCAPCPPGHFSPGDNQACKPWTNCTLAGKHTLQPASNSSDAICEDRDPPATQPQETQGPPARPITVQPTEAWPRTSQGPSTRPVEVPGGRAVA
The experiment in a line: ELISA, coated human OX40 protein.

Experiment [7] deals with T2, human OX40 on cells (CHO-K1/hu OX40). The experiment in a line: cell-based or functional assay. The source holds these as a separate data set.
In experiment [8] the target is T5, human OX40 protein (Acro biosystem, …). The experiment in a line: BLI, antibody on ProA sensor, 1:1 global fit. The method, then:
(§2) The binding kinetics between the antigen and the antibody was analyzed by the Biolayer Interferometry (BLI) technique using an Octet Red 96e molecular interaction analyzer (Fortebio).
(§3) The association and dissociation signals between the OX40 antibodies and OX40 proteins were recorded by Octet Red 96 in real time. When data analysis was performed using Octet Data Analysis software (Fortebio, version 11.0), 0 nM was used as a reference hole, and reference subtraction was performed; the “1:1 Global fitting” method was selected to fit the data, and the kinetics parameters of the binding of antigens to antigen-binding proteins were calculated, with kon(1/Ms) values, kdis(1/s) values and KD(M) values obtained.
In general terms: Biolayer interferometry detects binding as a change in optical thickness at a sensor tip.

In experiment [9] the target is T4, cynomolgus monkey OX40 protein …. The experiment in a line: BLI, antibody on ProA sensor, 1:1 global fit. The method, then:
as §2, §3

Experiment [10] deals with T2, human OX40 on cells (CHO-K1/hu OX40). Briefly: FACS, CHO-K1/hu OX40 cells. The essentials: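 Binding of anti-human OX40 HCAb antibodies measured by flow cytometry on CHO-K1 cells stably overexpressing human OX40. Cells incubated with 3-fold serially diluted antibodies 1 h at 4 °C in the dark, washed, then secondary staining 30 min at 4 °C; fluorescence read by FACS.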
The source holds these as a separate data set.

Experiment [11] shares this target. Briefly: FACS, blocking of biotin-human OX40L on CHO-K1/hu OX40 cells.

Where two headings read alike, the source gives them in different places.

T1 sequence (Q04609 whole entry): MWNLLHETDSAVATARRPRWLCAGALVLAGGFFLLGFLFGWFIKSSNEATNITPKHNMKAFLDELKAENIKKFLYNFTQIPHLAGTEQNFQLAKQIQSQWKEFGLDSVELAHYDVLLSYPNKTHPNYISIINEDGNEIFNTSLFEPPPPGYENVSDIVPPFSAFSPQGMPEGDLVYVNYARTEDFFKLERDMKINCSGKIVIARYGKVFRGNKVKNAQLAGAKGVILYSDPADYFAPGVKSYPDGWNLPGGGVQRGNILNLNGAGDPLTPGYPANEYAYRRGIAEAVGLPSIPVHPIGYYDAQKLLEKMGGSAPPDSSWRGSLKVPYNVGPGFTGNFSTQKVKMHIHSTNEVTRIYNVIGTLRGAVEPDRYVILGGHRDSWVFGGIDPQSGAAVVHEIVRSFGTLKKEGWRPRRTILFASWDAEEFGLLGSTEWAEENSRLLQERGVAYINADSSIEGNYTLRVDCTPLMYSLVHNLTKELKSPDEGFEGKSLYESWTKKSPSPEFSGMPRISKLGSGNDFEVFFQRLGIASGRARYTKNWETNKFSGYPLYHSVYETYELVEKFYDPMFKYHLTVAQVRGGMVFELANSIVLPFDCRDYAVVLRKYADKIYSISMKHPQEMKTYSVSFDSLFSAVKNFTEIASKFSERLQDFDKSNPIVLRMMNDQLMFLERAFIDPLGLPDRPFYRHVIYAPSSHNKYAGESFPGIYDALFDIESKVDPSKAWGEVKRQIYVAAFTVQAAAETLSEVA
T3 sequence (Q9NZQ7 19-290): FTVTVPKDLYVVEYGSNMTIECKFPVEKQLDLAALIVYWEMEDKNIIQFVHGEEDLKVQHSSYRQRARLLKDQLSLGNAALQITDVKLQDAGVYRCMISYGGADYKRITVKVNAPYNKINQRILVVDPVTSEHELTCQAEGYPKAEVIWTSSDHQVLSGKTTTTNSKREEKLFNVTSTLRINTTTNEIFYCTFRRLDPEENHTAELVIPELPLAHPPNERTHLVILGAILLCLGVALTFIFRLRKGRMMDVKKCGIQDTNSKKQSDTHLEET

B1: PR004284 (bispecific antibody, human IgG1, kappa, L234A L235A)
light: DIQMTQSPSSLSASIGDRVTITCRASQSINSYLNWYQQKPGKAPKLLIYTASSLLSGVPSRFSASGSWTDFSLTISSLQPEDFATYYCQQSFSTPYTFGQGTNLEIKRTVAAPSVFIFPPSDEQLKSGTASVVCLLNNFYPREAKVQWKVDNALQSGNSQESVTEQDSKDSTYSLSSTLTLSKADYEKHKVYACEVTHQGLSSPVTKSFNRGEC
heavy: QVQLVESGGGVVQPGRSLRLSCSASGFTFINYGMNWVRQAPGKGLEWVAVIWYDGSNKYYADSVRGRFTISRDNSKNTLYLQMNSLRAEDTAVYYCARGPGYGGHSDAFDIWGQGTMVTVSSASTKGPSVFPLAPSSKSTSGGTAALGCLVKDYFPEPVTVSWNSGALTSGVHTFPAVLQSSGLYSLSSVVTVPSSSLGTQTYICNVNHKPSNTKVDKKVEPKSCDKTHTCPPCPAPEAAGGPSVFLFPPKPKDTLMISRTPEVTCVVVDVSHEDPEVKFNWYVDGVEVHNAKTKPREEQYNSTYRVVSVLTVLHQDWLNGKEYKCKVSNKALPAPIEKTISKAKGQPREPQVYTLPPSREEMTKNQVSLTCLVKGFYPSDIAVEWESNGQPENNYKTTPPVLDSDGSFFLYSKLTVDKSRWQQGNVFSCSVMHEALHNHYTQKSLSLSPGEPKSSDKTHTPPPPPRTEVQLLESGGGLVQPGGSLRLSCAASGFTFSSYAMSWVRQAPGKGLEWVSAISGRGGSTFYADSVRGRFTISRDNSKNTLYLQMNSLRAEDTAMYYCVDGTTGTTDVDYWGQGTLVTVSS
notes: IgG-VH tetravalent symmetric structure: PR001331 IgG (anti-PSMA) with the VH of PR002067 via linker H1_15-RT; human IgG1 Fc (L234A, L235A); also called PSMAxOX40 bispecific antibody
As to B1, in experiment [1], a half-maximal response (EC50) required 6.7 nM. In experiment [2], the EC50 (as a rule, the concentration needed to bring the measured effect to its halfway point) came out at 4.96 nM and the “Maximum MFI” value turned out to be 287000 MFI.

B2: PR003789 (bispecific antibody, human IgG1, kappa, L234A L235A)
light: DIQMTQSPSTLSASVGDRVTVTCRASQSIYIWLAWYQQKPGKAPNLLIYKASSLETGVPSRFSGSGSGTEFTLTISSLQPDDFATYYCQQYYGSSRTFGQGTKVEIKRTVAAPSVFIFPPSDEQLKSGTASVVCLLNNFYPREAKVQWKVDNALQSGNSQESVTEQDSKDSTYSLSSTLTLSKADYEKHKVYACEVTHQGLSSPVTKSFNRGEC
heavy: EVQLVESGGGLVQPGGSLRLSCAASGFTFSSYWMSWVRQAPGKGLEWVANIKQEGSEKYYVDSVKGRFTISRDNAKNSLYLQMNSLRAEDTAVYYCARDRAVAGAFDIWGQGTMVTVSSASTKGPSVFPLAPSSKSTSGGTAALGCLVKDYFPEPVTVSWNSGALTSGVHTFPAVLQSSGLYSLSSVVTVPSSSLGTQTYICNVNHKPSNTKVDKKVEPKSCDKTHTCPPCPAPEAAGGPSVFLFPPKPKDTLMISRTPEVTCVVVDVSHEDPEVKFNWYVDGVEVHNAKTKPREEQYNSTYRVVSVLTVLHQDWLNGKEYKCKVSNKALGAPIEKTISKAKGQPREPQVYTLPPSREEMTKNQVSLTCLVKGFYPSDIAVEWESNGQPENNYKTTPPVLDSDGSFFLYSKLTVDKSRWQQGNVFSCSVMHEALHNHYTQKSLSLSPGAEPKSSDKTHTPPPPPEVQLLESGGGLVQPGGSLRLSCAASGFTFSSYAMSWVRQAPGKGLEWVSAISGRGGSTFYADSVRGRFTISRDNSKNTLYLQMNSLRAEDTAMYYCVDGTTGTTDVDYWGQGTLVTVSS
notes: IgG-VH tetravalent symmetric structure: PR000265 IgG (anti-PD-L1) with the VH of PR002067 at the C-terminus via linker H1_15; human IgG1 Fc (L234A, L235A, P329G); also called PD-L1xOX40 bispecific antibody
As for B2, the figures for the EC50 in [2] and in [3] were 3.98 nM and 1.04 nM, respectively. The “Maximum MFI” value in [2] worked out at 287000 MFI.

B3: PR001331 (antibody, human IgG1, kappa, V domains shown)
VH: QVQLVESGGGVVQPGRSLRLSCSASGFTFINYGMNWVRQAPGKGLEWVAVIWYDGSNKYYADSVRGRFTISRDNSKNTLYLQMNSLRAEDTAVYYCARGPGYGGHSDAFDIWGQGTMVTVSS
VL: DIQMTQSPSSLSASIGDRVTITCRASQSINSYLNWYQQKPGKAPKLLIYTASSLLSGVPSRFSASGSWTDFSLTISSLQPEDFATYYCQQSFSTPYTFGQGTNLEIKR
notes: H2L2 parental antibody against PSMA; also called anti-PSMA H2L2 antibody
The molecule B3 displayed an EC50 in [1] of 2.58 nM.

B4: PR002066 (antibody, human IgG1, V domains shown)
VH: EVQLLESGGGLVQPGGSLRLSCIASGFTFSSYAMSWVRQAPGKGLEWVSAISGRGGSTFYADSVRGRFTISRDNSKNTLYLQMNSLRAEDTAVYYCANGMTGTTDVDYWGQGTQVTVSS
notes: no light chain; also called anti-OX40 HCAb antibody
Take B4: in [4], the “EC50, IFN-γ release by human T cells with OKT3 and CHO-K1-CD32b cells” value amounted to 0.031 nM; the “Maximum IFN-γ release value” was 1870. Further, in [5], the midpoint of the response, the EC50, lay at 0.37 nM and the “Maximum OD” value worked out at 2.44 OD. Also, in experiment [6], the 50% effective concentration (EC50) amounted to 0.118 nM and the “Maximum OD” value was found to be 2.47 OD. Also, in [7], the “EC50, HEK293/OX40/NF-kb luciferase reporter” value stood at 5.45 nM and the “Maximum fluorescence signal value, HEK293/OX40/NF-kb luciferase reporter” value was 147000 luminescence. In experiment [8], binding was put at a Kd of 8.71 nM, the koff (commonly the rate constant with which the complex falls apart) was 0.000387 s⁻¹ and the on-rate (kon) (usually the rate constant with which the complex forms) worked out at 44400 M⁻¹ s⁻¹. In experiment [9], the equilibrium dissociation constant (Kd) – broadly, the equilibrium constant for the complex coming apart – was 22.7 nM; the dissociation rate constant (koff) amounted to 0.00097 s⁻¹; the kon worked out at 42700 M⁻¹ s⁻¹. Further, in experiment [10], the response was half-maximal at 4.67 nM (EC50) and the “Maximum MFI” value amounted to 3010 MFI. In experiment [11], half-maximal inhibition (IC50) required 67.6 nM and the “Maximum inhibition rate (%)” value is 58%.

B5: PR000327 (antibody, V domains shown)
VH: QVQLVESGGGLVKPGESLRLSCAASGFTFSDYYMYWVRQAPGKGLEWVAIISDGGYYTYYSDIIKGRFTISRDNAKNSLYLQMNSLKAEDTAVYYCARGFPLLRHGAMDYWGQGTLVTVSS
VL: DIQMTQSPSSLSASVGDRVTITCKASQNVDTNVAWYQQKPGQAPKSLIYSASYRYSDVPSRFSGSASGTDFTLTISSVQSEDFATYYCQQYDSYPYTFGGGTKLEIK
With B5, it took 3.02 nM to reach a half-maximal effect in experiment [1] (EC50).

B6: PR000265 (antibody, human IgG1, kappa, N297A, V domains shown)
VH: EVQLVESGGGLVQPGGSLRLSCAASGFTFSSYWMSWVRQAPGKGLEWVANIKQEGSEKYYVDSVKGRFTISRDNAKNSLYLQMNSLRAEDTAVYYCARDRAVAGAFDIWGQGTMVTVSS
VL: DIQMTQSPSTLSASVGDRVTVTCRASQSIYIWLAWYQQKPGKAPNLLIYKASSLETGVPSRFSGSGSGTEFTLTISSLQPDDFATYYCQQYYGSSRTFGQGTKVEIKR
notes: H2L2 parental antibody against PD-L1; also called anti-PD-L1 monoclonal antibody; H2L2 antibody
In the case of B6, the EC50 in [3] amounted to 0.605 nM.
